Laboratory results from paper PMC7721647, “The Human RNA Helicase DDX21 Presents a Dimerization Interface Necessary for Helicase Activity” (iScience, 2020).

T1: DDX21ΔN monomer (human, UniProt Q9NR30 186-783, L611R;A612R;A613R;A614R;L615R;A616R)
T1 sequence: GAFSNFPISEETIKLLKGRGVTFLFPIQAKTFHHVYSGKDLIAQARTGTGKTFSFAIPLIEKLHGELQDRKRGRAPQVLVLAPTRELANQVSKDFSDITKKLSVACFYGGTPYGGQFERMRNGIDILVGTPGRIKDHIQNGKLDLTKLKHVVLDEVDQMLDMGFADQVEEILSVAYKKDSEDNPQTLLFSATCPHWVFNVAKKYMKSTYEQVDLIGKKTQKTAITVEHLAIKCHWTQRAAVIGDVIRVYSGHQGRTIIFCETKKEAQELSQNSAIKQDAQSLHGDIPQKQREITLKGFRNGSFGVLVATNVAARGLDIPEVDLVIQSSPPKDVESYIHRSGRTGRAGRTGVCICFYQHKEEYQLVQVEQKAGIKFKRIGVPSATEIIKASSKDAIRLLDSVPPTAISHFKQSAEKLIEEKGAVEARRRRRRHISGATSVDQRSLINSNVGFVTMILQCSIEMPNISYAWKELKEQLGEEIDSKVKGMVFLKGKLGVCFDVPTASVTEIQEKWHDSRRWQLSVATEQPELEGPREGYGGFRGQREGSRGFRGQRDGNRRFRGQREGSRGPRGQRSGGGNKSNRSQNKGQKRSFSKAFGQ

T2: DDX21Core-DD (human, UniProt Q9NR30 186-620)
T2 sequence: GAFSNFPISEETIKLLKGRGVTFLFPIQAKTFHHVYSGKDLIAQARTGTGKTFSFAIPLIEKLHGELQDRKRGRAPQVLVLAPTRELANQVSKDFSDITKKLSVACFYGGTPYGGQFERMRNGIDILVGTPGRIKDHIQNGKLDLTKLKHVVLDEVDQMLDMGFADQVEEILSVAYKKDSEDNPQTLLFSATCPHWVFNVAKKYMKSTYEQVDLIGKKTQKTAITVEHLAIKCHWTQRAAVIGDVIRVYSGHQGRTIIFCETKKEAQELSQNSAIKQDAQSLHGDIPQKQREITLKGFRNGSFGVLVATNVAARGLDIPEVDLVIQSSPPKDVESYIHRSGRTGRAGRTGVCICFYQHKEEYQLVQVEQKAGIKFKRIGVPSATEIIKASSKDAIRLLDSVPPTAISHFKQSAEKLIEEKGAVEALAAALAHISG

T3: DDX21ΔN (human, UniProt Q9NR30 186-783)
T3 sequence: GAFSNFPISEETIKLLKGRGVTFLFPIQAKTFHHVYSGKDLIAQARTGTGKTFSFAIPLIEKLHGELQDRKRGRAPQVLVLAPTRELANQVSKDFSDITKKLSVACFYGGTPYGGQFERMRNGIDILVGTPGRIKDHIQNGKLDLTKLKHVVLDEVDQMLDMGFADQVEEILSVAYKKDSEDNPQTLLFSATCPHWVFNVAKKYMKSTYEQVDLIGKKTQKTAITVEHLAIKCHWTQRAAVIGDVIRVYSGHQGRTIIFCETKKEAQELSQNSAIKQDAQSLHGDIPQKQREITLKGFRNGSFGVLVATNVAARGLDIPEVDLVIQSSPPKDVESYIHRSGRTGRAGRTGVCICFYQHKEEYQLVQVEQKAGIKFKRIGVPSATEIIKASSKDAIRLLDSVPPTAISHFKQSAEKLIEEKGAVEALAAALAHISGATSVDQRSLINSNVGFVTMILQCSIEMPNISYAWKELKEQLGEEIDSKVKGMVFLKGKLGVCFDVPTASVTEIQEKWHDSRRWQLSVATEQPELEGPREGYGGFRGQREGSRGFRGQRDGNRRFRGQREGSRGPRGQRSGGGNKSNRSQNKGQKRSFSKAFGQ

T4: DDX21Fl (human, UniProt Q9NR30 1-783)
T4 sequence: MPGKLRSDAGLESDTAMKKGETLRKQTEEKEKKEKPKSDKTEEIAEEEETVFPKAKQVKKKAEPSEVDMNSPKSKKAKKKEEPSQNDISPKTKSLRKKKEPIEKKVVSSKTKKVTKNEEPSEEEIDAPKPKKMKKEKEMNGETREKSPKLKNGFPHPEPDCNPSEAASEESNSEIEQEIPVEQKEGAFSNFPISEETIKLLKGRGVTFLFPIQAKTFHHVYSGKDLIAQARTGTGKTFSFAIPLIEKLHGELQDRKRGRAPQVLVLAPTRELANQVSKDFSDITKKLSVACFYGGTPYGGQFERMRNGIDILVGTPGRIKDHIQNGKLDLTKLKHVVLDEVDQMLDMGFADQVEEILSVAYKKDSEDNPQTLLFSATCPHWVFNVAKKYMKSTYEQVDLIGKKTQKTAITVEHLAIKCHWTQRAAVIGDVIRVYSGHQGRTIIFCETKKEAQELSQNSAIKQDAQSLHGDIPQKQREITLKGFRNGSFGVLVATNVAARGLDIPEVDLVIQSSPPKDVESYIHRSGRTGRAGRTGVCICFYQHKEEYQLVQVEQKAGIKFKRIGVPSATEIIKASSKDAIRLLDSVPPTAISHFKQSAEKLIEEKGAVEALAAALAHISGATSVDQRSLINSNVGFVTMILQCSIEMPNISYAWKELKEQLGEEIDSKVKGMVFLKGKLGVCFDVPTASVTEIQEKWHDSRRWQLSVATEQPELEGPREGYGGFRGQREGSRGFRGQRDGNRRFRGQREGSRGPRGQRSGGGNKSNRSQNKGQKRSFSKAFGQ


Columns and labels:
DDX21ΔN monomer = target: T1, DDX21ΔN monomer; experiment: fluorescence polarization; FP: 50 mM Tris pH 7.5, 50 mM KCl, 5 mM MgCl2, no ATP; Hill-slope fit; temperature not given in the material; conditions: protein: recombinant
DDX21Core-DD = target: T2, DDX21Core-DD; experiment: as above; conditions: protein: recombinant, tags: C-terminal His6, uncleavable, chain copies: 2
DDX21ΔN = target: T3, DDX21ΔN; experiment: as above; conditions: protein: recombinant, chain copies: 2
DDX21Fl = target: T4, DDX21Fl; experiment: fluorescence polarization; no ATP; FP: 50 mM Tris pH 7.5, 50 mM KCl, 5 mM MgCl2, no ATP; Hill-slope fit; temperature not given in the material; conditions: protein: recombinant, tags: N-terminal Trx-His6, cut with thrombin, chain copies: 2
[1] = label: 5'-FAM on 15-mer, 3' overhang 15 nt

Binder	Kd (DDX21ΔN monomer; [1])	Kd (DDX21Core-DD; [1])	Kd (DDX21ΔN; [1])	Kd (DDX21Fl; [1])	Kd (DDX21ΔN monomer; label: 5'-FAM, single strand)	Kd (DDX21Core-DD; label: 5'-FAM, single strand)	Kd (DDX21ΔN; label: 5'-FAM, single strand)	Kd (DDX21Fl; label: 5'-FAM, single strand)
dsRNA 15/30mer 3' overhang (dsRNA) RNA 1: GUUUCGGAUCGACGC RNA 2: GCGUCGAUCCGAAACUAUACUUAAUUUUAA	122 ± 19.3 nM	143 ± 6.1 nM	15.5 ± 0.8 nM	10.2 ± 0.4 nM	–	–	–	–
GUUUCGGAUCGACGC (ssRNA) [15-mer ssRNA]	–	–	–	–	24.9 ± 1.7 nM	330 ± 19.1 nM	40.3 ± 2.6 nM	30.7 ± 2.8 nM
